Values quoted from earlier work in patent US20140212945.

Target: T1, MBNL1 (muscleblind-like 1 protein) (UniProt Q9NR56)
T1 sequence: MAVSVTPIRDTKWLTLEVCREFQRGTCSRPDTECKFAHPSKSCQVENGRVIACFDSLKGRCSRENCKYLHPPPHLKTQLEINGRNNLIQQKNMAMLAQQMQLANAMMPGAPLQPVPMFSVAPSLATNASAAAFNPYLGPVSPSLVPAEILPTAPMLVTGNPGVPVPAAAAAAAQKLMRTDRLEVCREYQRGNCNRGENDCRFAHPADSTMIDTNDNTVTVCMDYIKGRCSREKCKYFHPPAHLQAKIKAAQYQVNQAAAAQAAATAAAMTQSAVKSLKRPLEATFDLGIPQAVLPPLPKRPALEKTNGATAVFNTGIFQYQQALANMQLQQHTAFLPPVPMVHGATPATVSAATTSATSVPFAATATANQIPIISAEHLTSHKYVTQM
Conditions: CITED; value taken from previous report (ref 15 / ref 13); Table 5 lists the same value for r(CUG)exp

Substance: r(CUG)12x2
- Kd: 250 nM
